Assay: label from the status in PepcDB records

MNSLPGSIQTSRTNQQRPLISVIVPAYNAEDFILEALRSITAQDYEPLEILLVDDGSTDGTADLVRREMPTVRIIRQDNTGVAEARNTGLRNACGEFICLLDADDGWCPGKLHAQVQYLQQHPQTGAVYHAWQVWRPDAEGNFVSMPAPVVADSTAIDPALSGWIYPQLLMDCIVHTSTIMMRREFVEQLGFFRAELINGEDYDYWLRLSRLTRIDKLVGVYSFYRGSPGSLTNSVKPVNYEYNVVSAAAAKWGLAAPDGRALAAVDFQRRLGKLAFDFAYRHYRWGSARIARRAALQAWRHDPRRYKALLFWLASFFKREPRSAVQG
protein production: failed

GLTNFTRDAEVLYQCAWIHDVMGLETEAMPYYEQAIANGLEGESLCGAYIGLGSTYRCIGEYDKAITVLETGLQQFPGNDVMKVFLSLAKFNVNDHESAMKLLLETVVK
protein production: failed

MGHHHHHHSHMDEQSVESIAEVFRCFICMEKLRDARLCPHCSKLCCFSCIRRWLTEQRAQCPHCRAPLQLRELVNCRWAEEVTQQLDTLQLCSLTKHEEN
protein production: not failed

MSLVEATLEVIGGKWKCVILCHLTHGKKRTSELKRLMPNITQKMLTQQLRELEADGVINRIVYNQVPPKVEYELSEYGRSLEGILDMLCAWGANHINRVEGHHHHHH
protein production: not failed

MGHHHHHHSHHTTEAKNDLRVGGRFVSKMEAKDGSFGFDFGGTYNKVRLYEFISYIMDDDRSVEITFKPEKDKTYIVESFEAEKSNPIDLQQKGWQAILDNFKKYVEENKLRGREK
protein production: failed

MSWYRRTKLVFDSLRRNINPKILPRSHVTSRINNPIGSSNPSAKFSSISSREVGLRSWTSLGRNTNRIAYNPFLSQPKRYYYVDRYQVRHFKPRGPGRWFQNPRTVFTVVLVGSVGLITLIVGNTETIPYTKRTHFILLSKPMEKLLGETQFEQIKKTYQGKILPATHPESIRVRLIAKEVIDALQRGLSNERVWSDLGYASTESSLGGGSDKGVKEMEMAMSGEDTMTDMKWSKEDQVLDDQWIQKSRKKDSKAHAATSHLEGISWEVLVVNEPIVNAFCLPAGKIVVFTGLLNHFKSDAEVATVIGHEVGHAVARHVAEGITKNLWFAILQLVLYQFVMPDLVNTMSALFLRLPFSRKMEIEADYIGLLLLASAGYDPRVAPTVYEKLGKLGGDALGDYLSTHPSGKKRSKLLAQANVMEEALMIYREVQAGRTGVEGFL
protein production: failed

MMIAAAIFTTCVDGNKFFYHREIKVLRHLKRFNKPALKSIKSEDGDVIDCVPITNQPAFDHHLLKNHTIQMRPSFYPVSDSTYTKREAKAVTQVWHKAGECPKNTVPIRRTKKEDLLRPKSIRSFGRKSHQSIPRTTTFDPTLGHQYALMGVRNGKFYGTEVAINLWKPYVQIPKEFSLAQTWVVSGNGSSLNTIEAGWQVYPELYDDNNPRFFVYWTRDGYRKTGCYNLLCSGFVQTSNRYTVGGSITTMSRYRGTQYDLSVLIWKDQKTGNWWLRVNEKDVIGYWPGSLFNSLGREATRVEWGGEIINSKTGGRHTTTDMGSGHFADEGFKKASYFRNLKIVDGTNTLREPQGLYFFADKHNCYNVKTGNGGTSWGAHFFYGGPGRNVKCP
protein production: not failed

MIMINKTKRLMVSRQVKIPRKTYFWGPTPNPGMHPKDQSVTLLSIIRDYLKLSDKEREAARILANGLVKVDGKTVREKKFAVGFMDVIEINGESYRVVYNDQGALVLMKETKERASMKLLKVRSKVIAPGNRIQLGTHDGRTFITDDKSKKVGDVWAVSVPDMKISEIIKMQPGNKAYITAGSHVNQTGTISKIEAKEGSSANLVHFQEGFSTIKDHVFMIGSSKFSFVLSPEEVIPLEHHHHHH
protein production: not failed

MAVLLSSFSPLGINIDMNKNLGVSYSSFPQIHLFKGSTPLRVRTFVVSSRKNSGTGLASEDKKLLLERYGYDANDDFGSQSKKARRKEEKMSGRNSQQVEEVVVVQPRTTHRLLQVLAGTAKRKKLLSLKGMDVRPMMEVVKGAAFGILQAAGGCPTSLRPGRWLDLYSGTGSVGIEAISRGCSEAHFVEMDPWVVSNVLQPNLEHTGFVDASVIHTARVENFLERADKLVGKDGVFDYISVTPPYMEVDYEVLMDQIAKSPAIGENTFILVEYPSRTTMLDSCGCLEKMTDRRFGRTHLAIYGPKWAQKPRKS
protein production: failed

LECDGKVNICCKKQFFVSFKDIGWNDWIIAPSGYHANYCEGECPSHIAGTSGSSLSFHSTVINHYRMRGHSPFANLKSCCVPTKLRPMSMLYYDDGQNIIKKDIQNMIVEECGCS
protein production: not failed

MADFQVVVGDDDGTAYSFEVDGQDANRFIGRAIGETVDGDAVGLPGYELEITGGSDQSGRPMHGDINGAETAAILSEGGVGFNPTVDGERKRVTVRGAEVSEDTRQINASIVSRGEQSIDDLLGGEDDE
protein production: failed

SLENAGSRPFLADFNGFSYLELKGLHTFERDLGEKMALEMVFLARGPSGLLLYNGQKTDGKGDFVSLALHNRHLEFRYDLGKGAAIIRSKEPIALGTWVRVFLERNGRKGALQVGDGPRVLGESPVPHTMLNLKEPLYVGGAPDFSKLARGAAVASGFDGAIQLVSLRGHQLLTQEHVLRAVDVAPFAG
protein production: not failed

MKLGKTLAISCISMLSLSIWTQQVSAASAFDPSSEWMLGDWNGERTALKQKGYDFSIGYTGEMATVLDSKDTSRHGTEYAGQVALGTHFDLNKILGWQDTEAQITLTHRDGHDIKNKAAALEGQLSSTQEVYGRGQTTRLTDLWIKKKFFDQALDIKVGRFGESEDFNPAACDFQNLALCGDQMGNWNAGDQIHNWPVSQWAARVKYNVTPEVFAQVGVYEYNPENLKRSKGFNLSTDGSKGAVIPVEVVWQPKSGLINGLAGEYRAGYYYSTADANEINSTNKDHGQGGWLSFIQQLTAVNGDTSRGLKVVGQATFFDEATSRVKNTQSLAFAYKGLVDTRPKDELAIGFSRINLNDDAYLGKDVDSEYNSEIYYGIEATNWLTVRPNVQYVRHVGALKDGNNAWVGGIKFQTVF
protein production: failed

MESESSGLSFPLGLYDAIIAHARSVFPEECCGLVAAPAGGAPIRVIPMENALHSPVRYEMNPKEQFQVQKNLRREGLEMWAIYHSHPVTRPYPSETDIRLAFYPELYYLLTSLAEDPPPLKAYTIQNGVVREIPLKVSPGES
protein production: failed

MLHLKVQFLDDSQKIFVVDQKSSGKALFNLSCSHLNLAEKEYFGLEFCSHSGNNVWLELLKPITKQVKNPKEIVFKFMVK
protein production: failed

MSIGLSLTFGLYLLVLVGIGVYFFLRTETRRLTDYMLAGRDVGTWPLALSEVASVASGWTFFAWVGVGFTTGLHGLWFSMAMLVVVLFLYRYVAPTFRRQSEALDSQTVVDHLALVFRDSPWGPRIRWTATLAVVVFMASYIGAQIIAVGEAMETGLGLNYAVSVGAGGLAVALYTTLGGFDASVWTDFVQGLLVILAALALPLVAIAEIGGWGAFVTAVRAADPTLLSMTAGQTGTALALSVGSWLAFALGALGQPHGLMRFQAIRSERLLSRASVIALAFQALRLTVPLFIGMAGRVLYGSMNDPESAAMEMMVQLFPDWFAGLLLAGIIGAVLSTSDSMMLVTSADLTRLYETQLAGGVLPARMIRLGRGIVGVMALLGVGLAYWRPGTIFDIIEFAFVGLGATLGLPLAFLVLWPRTTGAGVFAAVAAGLGSAVGNLYLSPATFPILVWPITLTAFLGASYATAPSSPVTASSS
protein production: failed

SLGDQKPATIYAPTVRVTPNPAWPQVSWQLLVAKPSAARIIDSPRINVRPTPGELQVYHGAGWAQPATDMLEDSVVRAFEDSGKIAAVARIGAGIRSDYKLAIDVRRFESDYAGQSLPAATIELNAKLLHSSDQRVVASRTFTVARPSSSTDTAAVAAAFEQALTQVTTELVGWTLITGQQDSQTLPRAL
protein production: not failed

MDPAMSFAEIFTVVVPVFLVIAVGYGTGRRALFDAGGAQALRELTMQLALPAALLLSIWQTPRRVLVEQLPLVGLLAFGLLGVYAVLLGVLRLAGRRPLRRAALFALACVQPQYAFMGTSILGGLFGTAQAAVPIAVAGILVNVVLDPVVLILLGMPEHPASRTAATAAAATSAVRRPALVTVGGGAPGESVEAAAPVAAGDASPEHRPSVLRTVGHALREPFCWGPVLGLILSVGGVGVPKVAGTSLTLLAGAASAAALLYVGVSVSRIGRPKLTPAVWAIALTSVVVLPLLVYGAGLAMASAADAAQAALIVAFPVSPVPLMFAARHGSKADVRTIGSAVVLSLLLSFVTLPLLIELIG
protein production: not failed

MKKSLTLVLVVVSILIFSQTFKLEKVLGFSDISSLAFKDGYLLLGTGNGEIIVYKDGSYYRAFKVHDNRVNEVTFENGFIVSASDDKTVGVTNLETGEIKLLKGHMKGVSSVAVAGSKILSASFDGTVRVWSFPDGGEISSQKLGPSVVQIAAHENRYVVGLANGLALIRDLSNQSFSIPLKAHPEGIKKIVFSENGQLIATCGGNTVKVWNASNGNLVLQYDHVITVNDVAFLENDSLIFVADDYKAVVLNIQKNEVVKSIDAHNNFVLFVSSDDGSIATYGMDKTVKVWNANLELQYSLYGHQLSVNTVALSSDRKFIVSGSDDREILIWNTEKGIAEHRIKALSGVRKLLTVENNIISCLDSNQLKIYNLENGKLVKRIKVGTTSTMDIALQNDRMAVGFYDGSVALFRYPSFEEIWRKDTEHEMIQTIDMNNKFIAFGVSYSDPKDKIGYVEVLSADTGERVFLLEGHRGNVNAVKFAGDFLVSGGEDGKVILWNLDTGSKVKEIYLNEPVSSLFVDEKELFVGTWNGSIKIFAFPDLTLKTSLKASDQKIGHLIKVGNHLVVPCGDGKIRILVEK
protein production: failed

MIKNDGKMMRVRIAKERSDLCDLTAAAIKATYNTRNPCEVERCIDVLNHLKSLSLSVKDIRLSESIVKLETLRSHRNPRIRKEAQALFHSWLKTFYAHGSDNSFTAALTKDRLKMKKHVLKMCSELKKKEEPGTMARQVTAFSVLKNKEDERSQTTVEAVESKTTIKLSELNRKEDQRSLTRETEKNKARNSFLALKQKEDHRSETCVEKYFKKETKTNLKQLNMKTRRVSLEDVTTKKPHEDGSLIKKTKTEKELKKKKVDEMVKLFEAAKKAADVANAKGVLSGKPEVSRCIDALSLLMKINITPKPKEPRRMMDKLEGLTKHKDRKICHVASALLHLWRQRIREQERKKSVTKASSKTRKLSYVKIIWLEQIKVSCGFKRF
protein production: failed

MSRPSVNRSGEMEIFAKAVELGGFSAAARHYRMTPSAVSKLVLRLEERLGVRLVNRSTRKLQLTPEGHAFYERTVRILADIDEAERSASAGESPVGRVRLNVNASFGTHVLMPLVPEFRAHFPAVSLDIVMTDAVVDLMEARADVAIRAGPLKSSTLIARKLGATRMMIVAAPSYIERYGMPSSLEELKGHERLGFCYARAVDGWPLRTDGETVVLPASGAVQVSDGEGLRQLALAGAGLARLAEFTVREDVSARRLVPVLEDLNPGDLEEVHAVYLGQGGALPARVRAVLDFLARHARITPGQDAGRRRTSPIPAPA
protein production: failed

MLETVAGVTIGASCIILTIALTKKLGPEWAWINRKLIHLSIIPAALFFYYGIIPREIFSPAAALFGIAQLLAHVKNRELNWYQLKQNYGEVFFAFSASFITFVFPRDYASALLLVMAISDGVTGIIRHYYFKRNGFNVKLKKHWTGSLGYIITAIIIAVAFLDGNIIEKVGWAFILMLAEYQPWIDDNLAVPLVGSALYFLY
protein production: failed

MEEAPQVGDRLHCYWNLVSKDREKVFEAVVTDVETVSFRELRENDELAREDGFRDAKQLEEEFQRMYQGELTDDTEFQVIRFRKLPVDEWEGKRIDEKAMITRRADILFDSGKFSKSELCYTAALRIDPNDVYILNRLGDNLTRLGRFDEALENYRRAIMIEPENPYIWNNMAITLLNAGRVDEALEASERALKIKHDPDLLYWRGVMLEVAGKPLEALESYERSLEIDPRNAEVWTARGNLLSDLGRMEEAIESYNSALELALEDEQDPNVWNRKGNALLELERFNEALECYRRAIEMEPENDVYWTNMGVALLELERFDEALEAFNRALMINPKNEDAGILREECLENL
protein production: failed
